# Literature values as cited in paper PMC3022668.
# Biological target: streptavidin (Streptomyces avidinii) (UniProt P22629)
# Sequence (P22629 25-183): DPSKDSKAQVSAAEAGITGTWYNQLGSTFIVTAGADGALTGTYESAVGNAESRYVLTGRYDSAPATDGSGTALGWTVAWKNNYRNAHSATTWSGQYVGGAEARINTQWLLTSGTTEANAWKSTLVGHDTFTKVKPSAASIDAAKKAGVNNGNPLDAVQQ
substance,measurement,value
streptavidin-binding peptide (SBP),Kd,2.5 nM
